B1: 10-10 (ssDNA)
DNA: ACGCTAGCTGTTGCTGTGCAGGAAGAATGCAGATTCCCAACATGGATCCGAGCTCCACGTG
B2: 10-11 (ssDNA)
DNA: AGCTGTTGCTGTGCAGGAAGAATGCAGATTCCCAACATGGATCCGAGCTCCACGTG
B3: 10-7 (ssDNA)
DNA: CGTACGGTCGACGCTAGCTGTTGCTGTGCAGGAAGAATGCAGATTCCCAACATGGATCCGAGCTCC
B4: 10-4 (ssDNA)
DNA: CGTACGGTCGACGCTAGCTGTTGCTGTGCAGGAAGAATGCAGATTCCCAAC
B5: 10-6 (ssDNA)
DNA: CGTACGGTCGACGCTAGCTGTTGCTGTGCAGGAAGAATGCAGATTCCCAACATGGATCCGA
B6: 10-9 (ssDNA)
DNA: GGTCGACGCTAGCTGTTGCTGTGCAGGAAGAATGCAGATTCCCAACATGGATCCGAGCTCCACGTG
B7: 10-12 (ssDNA)
DNA: TTGCTGTGCAGGAAGAATGCAGATTCCCAACATGGATCCGAGCTCCACGTG
B8: 10-5 (ssDNA)
DNA: CGTACGGTCGACGCTAGCTGTTGCTGTGCAGGAAGAATGCAGATTCCCAACATGGA
B9: Sample 1 (ssDNA)
DNA: CGTACGGTCGACGCTAGCAAGTATAGACGTGATGCAGGGAATGCAGACCCAGGGGATCCGAGCTCCACGTG
B10: Sample 7 (ssDNA)
DNA: CGTACGGTCGACGCTAGCCCATGGGAATGCAGACCGCAGGCTGGCTGTAGGAGGGATCCGAGCTCCACGTG
B11: Sample 10 (ssDNA)
DNA: CGTACGGTCGACGCTAGCTGTTGCTGTGCAGGAAGAATGCAGATTCCCAACATGGATCCGAGCTCCACGTG
B12: modified 10-3 (XNA)
DNA: CGTACGGTCGACGCTAGCTGTTGCTGTGCAGGAAGAATGCAGATTC
modifications: 2'-OMe on all cytosines; 3' inverted dT (terminal t in listing is the inverted dT)

Target: T1, BCMA (TNFRSF17) (Homo sapiens, UniProt Q02223 Q02223:1-54)
T1 sequence (Q02223 1-54, one chain of several): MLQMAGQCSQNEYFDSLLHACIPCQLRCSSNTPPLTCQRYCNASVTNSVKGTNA
Experiment: ELONA; random region only
Conditions: tags: His-tag; label: 5'-biotin
Experimental: (§1) ELONA was used to evaluate the binding affinity of the aptamers. 500 ng of His-tagged recombinant BCMA was used to coat each well of a 96-well microtiter plate via overnight incubation at 4° C. 1 hour of BSA blocking at room temperature was used to cover non-binding sites and was followed by 4 washes with DNA binding buffer for 5 minutes. Varying concentrations of each aptamer was added into each well for 45-minute incubation with gentle shaking. The wells were then washed with wash buffer 4 times, 5 minutes each. 100 μl of streptavidin-HRP (1:10000 in PBST+0.1% BSA) was added into each well for 30-minute incubation. 4 washes with binding buffer were then performed. 50 μl of TMB was added to each well for a 20-minute incubation. 50 μl of 2M H₂SO₄ was used to stop the reaction, followed by measurement of 450 nm absorbance.
(§2) Their binding affinity was evaluated via ELONA. Binding curves were plotted, followed by calculation of the binding affinity.

Q: With TGTTGCTGTGCAGGAAGAATGCAGATTCCCAACAT (ssDNA) [10-8] as the binder, how does the Kd read?
A: 184 nM

Target: T1, BCMA (TNFRSF17)
Experiment: ELONA
Conditions: tags: His-tag; label: 5'-biotin
Experimental: as §1, §2

Q: For CGTACGGTCGACGCTAGCTGTTGCTGTGCAGGAAG (ssDNA) [10-1], which Kd is on record?
A: 1290 nM

Q: Which Kd does the source give for B1 here?
A: 1550 nM

Q: How did the Kd turn out when B2 was run?
A: 1590 nM

Q: Which Kd does the source give for B3 here?
A: 65 nM

Q: How did the Kd turn out when B4 was run?
A: 130 nM

Q: CGTACGGTCGACGCTAGCTGTTGCTGTGCAGGAAGAATGCA (ssDNA) [10-2] was tested. Which Kd did it give?
A: 240 nM

Q: Which Kd does the source give for B5 here?
A: 364 nM

Q: For B6, which Kd is on record?
A: 451 nM

Q: B7 was tested. Which Kd did it give?
A: 542 nM

Q: How did the Kd turn out when B8 was run?
A: 579 nM

Target: T1, BCMA (TNFRSF17)
Experiment: ELONA; Kd determined but value only in FIG. 2
Conditions: tags: His-tag; label: 5'-biotin

Q: Does B9 bind?
A: binds

Q: Does B10 bind?
A: binds

Q: Does B11 bind?
A: binds

Target: T1, BCMA (TNFRSF17)
Experiment: ELONA; best of the truncations
Conditions: tags: His-tag; label: 5'-biotin
Experimental: as §1, §2

Q: Which Kd does the source give for CGTACGGTCGACGCTAGCTGTTGCTGTGCAGGAAGAATGCAGATTC (ssDNA) [10-3] here?
A: 59 nM

Target: T1, BCMA (TNFRSF17)
Experiment: ELONA
Conditions: tags: His-tag

Q: B12 was tested. Which Kd did it give?
A: ~64.2 nM
